Entries after “also recorded” stand apart in the source; their conditions may differ.
B1: Xcc3438 gene: recombinant scyllo-inositol dehydrogenase, Xcc3438 gene product of Xanthomonas campestris pv. campestris ATCC33913, SEQ ID NO: 14 (protein)
chain: MPKPFNLAVVGYGYVGRTFHAPLIASTPGLQLHSVVSSKPQQPQADFREVRVLPDLEAALADPALDAVVIATPNQTHAPMALQALAAGKHVLVDKPFALDAAQARTVVDAAAEAGKIVSVFQNRRWDADFLTVRRLIEDGQLGEVVEFHSHFDRYRPQVRDRWRESDIPGAGLWYDLGPHLLDQALQLFGMPQAISADLQRQRTQARSDDYFNVVLRYPRLRVILHAGSLVADGSLRFAVHGTRGSYLKHGADTQEDQLRAGRRPGTAGWGMDPLPGTLTRVDDEGRVHTHQPDGVPGDYRHCYAAFRDAMAGTAPPPVSAADAVRLMELLELAQRGAALGQVLWLEGNSSD
modifications: Xanthomonas campestris pv. campestris
B2: AB10121 Atu4375 gene: recombinant scyllo-inositol dehydrogenase, Atu4375 gene product of Agrobacterium sp. AB10121 FERM P-17383, SEQ ID NO: 10 (protein, listed as Agrobacterium sp.)
chain: MSSAPKKFDSRRIRLGMVGGGQGAFIGAVHRIAARLDDRYELVAGALSSDPARAAASATLLGIAPERSYASFEEMAAAEAGRDDGIEAVAIVTPNHLHFAPSKAFLEAGIHVICDKPVTATLEEAKALAEIVRASDSLFVLTHNYTGYAMLRQMRQMVADGAIGKLRHVQAEYAQDWLTEAVEKTGAKGAEWRTDPSRSGAGGAIGDIGTHAFNAAAFVTGEIPKSLYADLTSFVPGRQLDDSANILLRYESGAKGMLWASQIAVGNENALSLRVYGEKGGLEWHHRVPDELWFTPYGEPKRLITRNGAGAGAAANRVSRVPSGHPEGYLEGFATIYREAADAIIAKREGKAAAGEVIYPGMEDGLAGLAFIDAAVRSSQTSTWINIDI
B3: AB10121 Atu3234 gene: recombinant scyllo-inositol dehydrogenase, Atu3234 gene product of Agrobacterium sp. AB10121 FERM P-17383, SEQ ID NO: 12 (protein, listed as Agrobacterium sp.)
chain: MAIEGKTTDKANKRIRLGMVGGGSGAFIGGVHRMAARLDNRFDLVAGALSSTPEKSLASGRELGLDPERCYGSFEEMAEKEALREDGIEAVAIVTPNHVHYPAAKAFLERGIHVICDKPLTSNLEDAKKLKDVADKADALFILTHNYTGYPMVRHARELVESGALGTIRLVQMEYPQDWLAEPIEQTGAKQAVWRTDPAQSGAGGSTGDIGTHAYNLGCFISGLEVDELAADVHTFVEGRRLDDNAHVMLRFKPKGGKQPAKGLLWCSQVAVGHENGLKVRVYGDKAGIEWTQADPNYLWFTKLGELKQLITRGGAGAGAAAARVTRIPSGHPEGYLEAFATIYTEAAHAIEARRTGSVLDKAVIYPTVDDGVKGVAFVTACIESGKKNGVWVKL
B4: SIDH1: scyllo-inositol dehydrogenase purified from Acetobacter sp. AB10281, DEAE-unadsorbed fraction, SEQ ID NO: 28 (protein, listed as Acetobacter sp.)
chain: MTKRKLRIGLIGSGFMGRTHAFGYSTASRVFDLPFQPELTCLADISDEAAAKAADALGFARSTSDWRTLVNDPEIDVVNITAPNAFHKEMALAAIAAGKHVYCEKPLAPLAADAREMAEAAEAKGVKTQVGFNYLCNPMLALARDMIAAGELGEIRGYRGLHAEDYMADASSPFTFRLDPAGGGALADIGSHALATAEFLMGPAAGAITQVMGDCVTVIKTRPDGKGGTRAVEVDDIGRALLRFENGATGSVEGNWIATGRTMQHDFEVYGTKGALAFTQQRFNELHFFSSTDARGRKGFRRIEAGPEHAPYGLFCVAPGHQLGFNDLKAIEVARYLEALAGHHPEPFNFRAGLRIQTLVETIHASSKSAAWRDVPTDKVKLQAKSRQHEKA

Key:
Format in all cases: biochemical
[1] = Effects of heavy metal on scyllo-inositol dehydrogenase; conditions: 2 mM heavy metal in reaction solution; no addition group = 100%
Description: Effects by the heavy metals can be confirmed by: mixing 5 μl of a reaction solution (200 mM Tris buffer of pH 8.0 containing 2% of NADPH, 1% of scyllo-inosose, and 2 mM metal salt) and 5 μl of an enzyme solution; allowing the mixture to react at 36° C. for 30 minutes; adding 500 μl of water immediately after the completion of the reaction; determining the absorbance at 340 nm; and determining a decrease in the absorbance at 340 nm with respect to a blank value of a test solution containing water instead of the enzyme solution. The term “activated” means the case where the enzymatic activity of a fraction added with 1 mM of a heavy metal is 105% or more, preferably 120% or more, with respect to the enzymatic activity of a fraction added with no heavy metal as 100%. On the other hand, the term “inhibited” means the case where the enzymatic activity of the fraction added with 1 mM of a heavy metal is 95% or less, preferably 70% or less, with respect to the enzymatic activity of the fraction added with no heavy metal as 100%.
The effects of heavy metal on the enzymes of the present invention were determined by: mixing 5 μl of a reaction solution (200 mM Tris buffer (pH 8.0), 2% of NADPH, 1% of scyllo-inosose, and 2 mM of a heavy metal) with 5 μl of an enzyme solution; and allowing the mixture to react at 36° C. for 30 min. After the reaction, 500 μl of water was immediately added thereto, and the absorbance at 340 nm was measured. From the blank value of a test solution prepared by using water instead of the enzyme solution, the decrease in the absorbance at 340 nm was measured. The enzyme solution was diluted as required. CaCl2, CoCl2, ZnSO4, MgSO4, SnCl2, NiCl2, and MnSO4 were used as metallic salts. The activity of the no addition group was defined as 100%, and the relative activities were compared. […] Most of the enzymes were inhibited in the presence of Zn^2+ ion, in contrast, the enzyme derived from Bacillus subtilis 168 was activated in the presence of Zn^2+ ion.

[2] = Substrate specificity of scyllo-inositol dehydrogenase (relative activity of oxidation, absorbance at 545 nm); conditions: relative to reactivity to scyllo-inositol, NADP^+, pH 8.0, 25° C.
Description: Examples of an inositol isomer include scyllo-inositol (SI), myo-inositol (MI), D-chiro-inositol (DCI), L-chiro-inositol (LCI), epi-inositol (EI), muco-inositol (MuI), allo-inositol (AI), and neo-inositol (NI).
The inositol isomers include scyllo-inositol (SI), myo-inositol (MI), D-chiro-inositol (DCI), L-chiro-inositol (LCI), epi-inositol (EI), muco-inositol (MuI), allo-inositol (AI), and neo-inositol (NI).
The reaction rate was calculated from the absorbance increments at the respective times.

[3] = Optimum pH of scyllo-inositol dehydrogenase; conditions: 200 mM phosphate buffer (pH 5.0 to 9.0); 90% or more of the maximum activity
Description: The optimum pH can be confirmed by: mixing 5 μl of a reaction solution (200 mM […] of pH 5.0 to 9.0 containing 2% of NADPH, and 1% of scyllo-inosose) and 5 μl of an enzyme solution; allowing the mixture to react at 36° C. for 30 minutes; adding 500 μl of water immediately after the completion of the reaction; determining the absorbance at 340 nm; and determining a decrease in the absorbance at 340 nm with respect to a blank value of a test solution containing water instead of the enzyme solution. The term “optimum pH” means a pH at which the enzyme has 90% or more of the maximum activity. The enzyme of the present invention can be divided depending on, for example, a range of the optimum pH into groups each having: an optimum pH in an acidic region (optimum pH is pH of 5.5 to 6.5); an optimum pH in a neutral region (optimum pH is pH of 6.5 to 7.5 or 6.5 to 8.5); and an optimum pH in an alkaline region (optimum pH is pH of 7.0 to 8.5 or 7.5 to 9.0).
The optimum pH of the enzymes of the present invention was determined by: mixing 5 μl of a reaction solution (200 mM phosphate buffer (pH 5.0 to 9.0), 2% of NADPH, and 1% of scyllo-inosose) with 5 μl of an enzyme solution; and allowing the mixture to react at 36° C. for 30 min. After the reaction, 500 μl of water was immediately added thereto, and the absorbance at 340 nm was measured. From the blank value of a test solution prepared by using water instead of the enzyme solution, the decrease in the absorbance at 340 nm was measured. The enzyme solution was diluted as required.

[4] = Enzyme reaction product of scyllo-inosose reduction measured by HPLC; conditions: for share of scyllo-inositol in the product of scyllo-inosose reduction: 10 mg scyllo-inosose, 40 mg NADPH, 10 U enzyme, 36° C., 4 hours, myo-inositol not detected; for Reduction reaction product: SIS: scyllo-inosose, SI: scyllo-inositol
Description: Meanwhile, the enzyme reaction product was measured as follows: 10 mg of scyllo-inosose, 40 mg of NADPH, and 10 U of the enzyme were allowed to react in 1.0 ml of 100 mM Tris buffer (pH 8.0) at 36° C. for 4 hours, and a heat treatment was performed at 80° C. for 10 min, followed by cooling. Then, 100 μl of a strong base cation exchange resin, 100 μl of a strong acid anion exchange resin, and 10 mg of activated carbon were added, and the mixture was stirred and centrifuged. Then, the supernatant was diluted 2-fold, and measurement was performed by HPLC (Shodex Asahipak NH2P-50 4E Φ 4.6×250 mm: Shodex) using an RI detector under the condition of a column temperature of 40° C. and a mobile phase flow rate of 1.5 ml (80% acetonitrile). […] Meanwhile, the sequence of the ydgJ gene is shown in SEQ ID NO: 1, and the amino acid sequence corresponding thereto is shown in SEQ ID NO: 2.
Meanwhile, enzyme reaction product was measured as follows: 10 mg of scyllo-inosose, 40 mg of NADPH, and 10 U of the enzyme were allowed to react in 1.0 ml of 100 mM Tris buffer (pH 8.0) at 36° C. for 4 hours, and a heat treatment was performed at 80° C. for 10 min, followed by cooling. Then, 100 μl of a strong base cation exchange resin, 100 μl of a strong acid anion exchange resin, and 10 mg of activated carbon were added, and the mixture was stirred and centrifuged. Then, the supernatant was diluted 2-fold, and measurement was performed by HPLC (Shodex Asahipak NH2P-50 4E Φ 4.6×250 mm: Shodex) using an RI detector under conditions of a column temperature of 40° C. and a mobile phase flow rate of 1.5 ml (80% acetonitrile).

[5] = Km values of scyllo-inositol dehydrogenase for scyllo-inosose (reciprocal plot); conditions: NADPH, pH 8.0, 36° C.
Description: The determination is carried out such that the Km value is calculated after reciprocal plot according to the general method.
After the reaction, […] of water was immediately added thereto, and the absorbance at 340 nm was measured. From the blank value of a test solution prepared by using water instead of the enzyme solution, the decrease in the absorbance at 340 nm was measured. The enzyme solution was diluted as required. The Km values were calculated by the reciprocal plot.

Molecule	Heavy metal effects: activation [1]	Heavy metal effects: strong inhibition [1]	Substrate specific Relative activity (70% or more) [2]	Substrate specific Relative activity (less than 20%) [2]	Optimum pH [3]	share of scyllo-inositol in the product of scyllo-inosose reduction [4]	Reduction reaction product [4]	Km [5]	Substrate specific Relative activity (20 to 70%) [2]
B1	Co	Sn, Zn	SI, DCI	EI, LCI, MuI,; also recorded: AI, NI	pH 6.5-7.5	100%	Only SIS → SI	9.1 mM	
B2	Co, Mn	Sn, Zn	SI, MI, DCI, EI	AI, NI	pH 6.5-8.5	100%	Only SIS → SI	9.8 mM	LCI, MuI
B3	Co, Mn, Ca	Sn, Zn	SI, MI, DCI, EI, and LCI	AI, NI	pH 7.0-8.5	100%	Only SIS → SI	3.1 mM	MuI
B4	Co	Sn, Zn		DCI, LCI, EI,; also recorded: MuI, AI, NI	pH 5.5-6.5		Only SIS → SI	7.6 mM	

Source: US8409833B2 (Hokko Chemical Industry Co., Ltd., priority 2003, dated 2013)
